The text below walks through data of patent US20170165373A1 (Amgen, published 2017).

For test [1], the target named is T1, human BCMA (huBCMA), full length, on cells (human, UniProt Q02223 1-184).
T1 construct: also called native huBCMA; B-cell maturation antigen
T1 chain: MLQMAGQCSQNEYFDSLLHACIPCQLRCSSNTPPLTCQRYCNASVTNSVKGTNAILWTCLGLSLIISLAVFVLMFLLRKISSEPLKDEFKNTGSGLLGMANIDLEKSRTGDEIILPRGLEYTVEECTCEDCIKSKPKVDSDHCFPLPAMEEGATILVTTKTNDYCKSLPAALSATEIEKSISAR
The test can be described thus: FACS. (In general: In flow cytometry, cells or beads pass a laser one at a time.)

In test [2] the target is T2, cynomolgus BCMA, on transiently transfected 293T cells (cynomolgus (Macaca fascicularis), UniProt Q02223 1-184 (human entry)).
T2 construct: also called cyno BCMA
The test can be described thus: FACS.

The target in test [3] is T3, TACI, full length, on transiently transfected cells (human, UniProt O14836 1-293).
T3 construct: whole, on cells; also called huTACI
T3 sequence (looked up): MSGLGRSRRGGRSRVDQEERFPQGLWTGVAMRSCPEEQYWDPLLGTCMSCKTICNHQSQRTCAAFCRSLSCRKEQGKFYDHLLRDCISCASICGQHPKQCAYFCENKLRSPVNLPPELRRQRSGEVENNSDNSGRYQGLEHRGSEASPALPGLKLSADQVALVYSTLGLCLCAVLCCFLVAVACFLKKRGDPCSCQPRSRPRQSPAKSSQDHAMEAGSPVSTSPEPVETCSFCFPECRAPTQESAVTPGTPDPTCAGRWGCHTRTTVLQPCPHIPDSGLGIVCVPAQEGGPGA
The test can be described thus: FACS.

For test [4], the target named is T1, human BCMA (huBCMA), full length, on …. The test can be described thus: APRIL blocking FACS. Also noted: concentration or dose not given beside the values.
The target of test [5] is T2, cynomolgus BCMA, on transiently …. Description: FACS O/N.
In test [6] the target is T1, human BCMA (huBCMA), full length, on …. The test can be described thus: cell-based or functional assay.
The target is the same in test [7]. The test can be described thus: cell-based or functional assay.
The target is the same in test [8]. Description: FACS, H929 cells.

T2 sequence (Q02223 other isoform, or with tags, fused parts or gaps): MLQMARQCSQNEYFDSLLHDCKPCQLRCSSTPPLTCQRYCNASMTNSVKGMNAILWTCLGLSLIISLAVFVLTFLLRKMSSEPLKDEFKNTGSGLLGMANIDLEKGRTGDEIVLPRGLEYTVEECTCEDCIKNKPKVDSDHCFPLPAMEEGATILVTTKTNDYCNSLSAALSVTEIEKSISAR

B1: 32H3 (antibody, V domains shown)
VH: EVQLLESGGGLVQPGGSLRLSCAASGFTFSSYAMSWVRQAPGKGLKWVSAISGGAGNTYYADSVKGRFTISRDISKSTVYLQMTSLRAEDTAIYYCAKDGVGTTGGYFYYHGMDVWGQGTTVTVSS
VL: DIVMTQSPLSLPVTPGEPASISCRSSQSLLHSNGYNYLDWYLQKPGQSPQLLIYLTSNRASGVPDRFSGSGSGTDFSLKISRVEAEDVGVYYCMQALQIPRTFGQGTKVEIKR
notes: Tested as purified hybridoma IgG2 or IgG4; also called Ab-12; 32H3.1
In test [1], B1 returned an MFI of 97700. In test [2], the MFI turned out to be 51200. Further, in test [3], the MFI was determined as 1360 and the binding result was “no binding”. In test [4], the “% Inhibition n=1” value was 20%, the “% Inhibition n=2” value came out at 47% and the “Avg. % Inhibition” value was determined as 33%. The molecule also yielded an MFI in test [5] of 122.

B2: 30E1 (antibody, V domains shown)
VH: EVQLLESGGGLVQPGGSLRLSCAASGFTFSSHAMSWVRQAPGKGLEWVSAISGGDGNTYYADSVKGRFAISRDNSKNVVYLQMNSLRAEDTAVYFCAKDLVGVVAGYYYYFGMDVWGQGTTVTVSS
VL: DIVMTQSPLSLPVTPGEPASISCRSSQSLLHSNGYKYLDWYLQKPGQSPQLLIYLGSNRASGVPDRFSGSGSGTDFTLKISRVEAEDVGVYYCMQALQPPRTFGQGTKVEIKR
notes: Tested as purified hybridoma IgG2 or IgG4; also called Ab-9; 30E1.1
Turning to B2, the MFI in test [1] was 109000; in test [2] it was 78500; in test [3], 555; in test [5], 130. Also, the binding result in test [3] was “no binding”. Also, the “% Inhibition n=1” value in test [4] came out at 31%. In addition, the “% Inhibition n=2” value in test [4] worked out at 46%. Further, the “Avg. % Inhibition” value in test [4] amounted to 38%.

B3: 2A1 Covariance 4 (2A1_D84N + C107T) (antibody, human IgG1, lambda, V domains shown)
VH: EVQLVESGGGLVKPGRSLRLSCTASGFTFGDYALSWFRQAPGKGLEWVGVSRSKAYGGTTDYAASVKGRFTISRDNSKSFAYLQMNSLKTEDTAVYYCTSSGYSSGWTPFDYWGQGTLVTVSS
VL: not shown
For the molecule B3, the “ADCC EC50” value in test [6] was found to be 0.028 µg/mL.

B4: 2A1 Covariance 7 (2A1_S108K + C107T) (antibody, human IgG1, lambda, V domains shown)
VH: EVQLVESGGGLVKPGRSLRLSCTASGFTFGDYALSWFRQAPGKGLEWVGVSRSKAYGGTTDYAASVKGRFTISRDDSKSFAYLQMNSLKTEDTAVYYCTKSGYSSGWTPFDYWGQGTLVTVSS
VL: not shown
As to B4, the “ADCC EC50” value in test [6] was 0.0191 µg/mL.

B5: 2A1 Covariance 14 (2A1_T24A + F44V + F88T + C107A) (antibody, human IgG1, lambda, V domains shown)
VH: EVQLVESGGGLVKPGRSLRLSCAASGFTFGDYALSWVRQAPGKGLEWVGVSRSKAYGGTTDYAASVKGRFTISRDDSKSTAYLQMNSLKTEDTAVYYCASSGYSSGWTPFDYWGQGTLVTVSS
VL: not shown
Regarding B5, the “ADCC EC50” value in test [6] came to 0.0417 µg/mL.

B6: 2A1 Covariance 6 (2A1_C107A) (antibody, human IgG1, lambda, V domains shown)
VH: EVQLVESGGGLVKPGRSLRLSCTASGFTFGDYALSWFRQAPGKGLEWVGVSRSKAYGGTTDYAASVKGRFTISRDDSKSFAYLQMNSLKTEDTAVYYCASSGYSSGWTPFDYWGQGTLVTVSS
VL: not shown
For the molecule B6, in test [6], the “ADCC EC50” value worked out at 0.0169 µg/mL.

B7: 2A1 Covariance 12 (2A1_T24A + F44V + F88T + C107T) (antibody, human IgG1, lambda, V domains shown)
VH: EVQLVESGGGLVKPGRSLRLSCAASGFTFGDYALSWVRQAPGKGLEWVGVSRSKAYGGTTDYAASVKGRFTISRDDSKSTAYLQMNSLKTEDTAVYYCTSSGYSSGWTPFDYWGQGTLVTVSS
VL: not shown
On to B7, for which the “ADCC EC50” value in test [6] is 0.111 µg/mL.

B8: 2A1 Covariance 13 (2A1_F44V + F88T + C107A) (antibody, human IgG1, lambda, V domains shown)
VH: EVQLVESGGGLVKPGRSLRLSCTASGFTFGDYALSWVRQAPGKGLEWVGVSRSKAYGGTTDYAASVKGRFTISRDDSKSTAYLQMNSLKTEDTAVYYCASSGYSSGWTPFDYWGQGTLVTVSS
VL: not shown
In the case of B8, the “ADCC EC50” value in test [6] came to 0.0327 µg/mL.

B9: 2A1 Covariance 5 (2A1_F88T + C107T) (antibody, human IgG1, lambda, V domains shown)
VH: EVQLVESGGGLVKPGRSLRLSCTASGFTFGDYALSWFRQAPGKGLEWVGVSRSKAYGGTTDYAASVKGRFTISRDDSKSTAYLQMNSLKTEDTAVYYCTSSGYSSGWTPFDYWGQGTLVTVSS
VL: not shown
On to B9, for which, in test [6], the “ADCC EC50” value came to 0.016 µg/mL.

B10: 2A1 Covariance 11 (2A1_F44V + C107A + S108K) (antibody, human IgG1, lambda, V domains shown)
VH: EVQLVESGGGLVKPGRSLRLSCTASGFTFGDYALSWVRQAPGKGLEWVGVSRSKAYGGTTDYAASVKGRFTISRDDSKSFAYLQMNSLKTEDTAVYYCAKSGYSSGWTPFDYWGQGTLVTVSS
VL: not shown
With B10, in test [6], the “ADCC EC50” value was 0.364 µg/mL.

B11: 1E1-PEG4-Mal-DM4 (antibody drug conjugate) (other)
VH: QVQLVQSGAEVKKPGASVKVSCKASGYTFTGHYIHWVRQAPGQGLEWMGWIYPNSGGTNYAQKFQGRVTMTRDTSISTAYMELSRLRSDDSAVYYCAREGMVTGDYYYYRMDVWGQGTTVIVSS
VL: QPVLTQPPSASASLGASVTLTCSLSSGYSNYKVDWYQQRPGKGPRFVMRVGIGGIVGSKGDGIPDRFSVLGSGLNRYLTIKNIQEEDESDFHCGADHGSGNNFVYVFGTGTKVTVLG
modifications: antibody carries DM4 through the PEG4-Mal linker; sites not stated
As to B11, the “cell viability IC50 (CellTiter-Glo, 96 h), H929 cells” value in test [7] came to 0.68 nM.

B12: 1E1-MCC-DM1 (antibody drug conjugate) (other)
VH: QVQLVQSGAEVKKPGASVKVSCKASGYTFTGHYIHWVRQAPGQGLEWMGWIYPNSGGTNYAQKFQGRVTMTRDTSISTAYMELSRLRSDDSAVYYCAREGMVTGDYYYYRMDVWGQGTTVIVSS
VL: QPVLTQPPSASASLGASVTLTCSLSSGYSNYKVDWYQQRPGKGPRFVMRVGIGGIVGSKGDGIPDRFSVLGSGLNRYLTIKNIQEEDESDFHCGADHGSGNNFVYVFGTGTKVTVLG
modifications: antibody carries DM1 through the MCC linker; sites not stated
On to B12, for which the “cell viability IC50 (CellTiter-Glo, 96 h), H929 cells” value in test [7] is 0.63 nM.

B13: 35D2 (antibody, V domains shown)
VH: EVQLLESGGALVQPGGSLRLSCAASGFTFSSYAMNWVRQAPGKGLEWVSAISVGGGTYYADSVKGRFTISRDNSKNTLYLHVNSLRAEDTAVYYCAKDQVTMVRGVWYYYGLDVWGQGTTVTVSS
VL: VIVLIQSPLSLPVTPGEPASISCRSSQSLLHSNGNNYLDWYLQKPGQSPHLLISLGSNRTSGVPDRFSGSGSGTDFTLKISRVEAEDVGFYYCMQALQPPRRFGQGTKLEIKR
notes: also called Ab-15; 35D2.1
B13 returned an MFI in test [1] of 129000. In test [2], this molecule returned an MFI of 198000. In test [3], the MFI was found to be 506 and the binding result was “no binding”. In addition, in test [4], the “% Inhibition n=1” value turned out to be 57%, the “% Inhibition n=2” value was found to be 82% and the “Avg. % Inhibition” value came out at 70%. The MFI in test [5] was 152.

B14: 32B5 (N69Q) (antibody, human IgG1, kappa, V domains shown)
VH: EVQLLESGGALVQPGGSLRLSCAASGFTFSSYAMNWVRQAPGKGLEWVSAISVGGDTYYADSVKGRFTISRDNSKNTLYLHVNSLSAEDSAVYYCAKDQVTLVRGVWYYYGLDVWGQGTTVTVSS
VL: VIVLIQSPLSLPVTPGEPASISCRSSQSLLHSNGNNYLDWYLQKPGQSPHLLISLGSQRTSGVPDRFSGSGSGTDFTLKISRVEAEDVGFYYCMQALQPPRRFGQGTKLEIKR
notes: also called 32B5 (LC: N69Q); P70169.3
Take B14: in test [8], the binding result is “binds”.

B15: 33C7 (antibody, V domains shown)
VH: EVQLLESGGALVQPGGSLRLSCAASGFTFSSYAMNWVRQAPGKGLEWVSAISVGGDTYYADSVKGRFTISRDNSKNTLYLHVNSLSAEDSAVYYCAKDQVTLVRGVWYYYGLDVWGQGTTVTVSS
VL: VIVLIQSPLSLPVTPGEPASISCRSSQSLLHSNGNNYLDWYLQKPGQSPHLLISLGSNRTSGVPDRFSGSGSGTDFTLKISRVEAEDVGFYYCMQALQPPRRFGQGTKLEIKR
notes: Tested as purified hybridoma IgG2 or IgG4; also called Ab-11; 33C7_HC#1
In test [1], B15 came in with an MFI of 132000. Also, the MFI in test [2] was found to be 238000. Further, in test [3], the MFI came to 1890 and the binding result was “no binding”. Besides, in test [4], the “% Inhibition n=1” value is 68%, the “% Inhibition n=2” value came to 88% and the “Avg. % Inhibition” value turned out to be 78%. In addition, the MFI in test [5] stood at 109.

B16: 29C12 (antibody, V domains shown)
VH: EVQLLESGGALVQPGGSLRLSCAASGFTFSSYAMNWVRQAPGKGLEWVSAISVGGDTYYADSVKGRFTISRDNSKNTLYLQMNSLRAEDTAVYYCAKDQVTMVRGVWYYYGLDVWGQGTTVTVSS
VL: DIVMIQSPLSLPVTPGEPASISCRSSQSLLHSNGNNYLDWYLQKPGQSPHLLISLGSNRTSGVPDRFSGSGSGTDFTLKISRVEAEDVGVYYCMQALQPPRRFGQGTKLEIKR
notes: also called Ab-8; 29C12.1
In test [1], B16 displayed an MFI of 82600. Besides, in test [2], the MFI is 97300. In test [3], the MFI was found to be 256 and the binding result is recorded as “no binding”. In test [4], the “% Inhibition n=1” value stood at 30%, the “% Inhibition n=2” value is 62% and the “Avg. % Inhibition” value was found to be 46%. Moreover, the MFI in test [5] was determined as 110.

B17: 37B2 (antibody, V domains shown)
VH: EVQLLESGGALVQPGGSLRLSCAASGFTFSNYAMNWVRQAPGKGLEWVSAISVGGDTYYADSVKGRFTISRDNSKNTLYLHVNSLSAEDSAVYYCAKDQVTLVRGVWYYYGLDVWGQGTTVTVSS
VL: VIVLIQSPLSLPVTPGEPASISCRSSQSLLHSNGNNYLDWYLQKPGQSPHLLISLGSNRTSGVPDRFSGSGSGTDFTLKISRVEAEDVGFYYCMQALQPPRRFGQGTKLEIKR
notes: Tested as purified hybridoma IgG2 or IgG4; also called Ab-16; 37B2.1
In test [1], B17 yielded an MFI of 83700. In addition, in test [2], the MFI turned out to be 136000. In addition, in test [3], the MFI came out at 1040 and the binding result is recorded as “no binding”. In addition, in test [4], the “% Inhibition n=1” value worked out at 37%, the “% Inhibition n=2” value is 58% and the “Avg. % Inhibition” value turned out to be 48%. The same molecule came in with an MFI in test [5] of 104.
